The target of assay [1] is T1, Duffy Antigen Receptor for Chemokines (DARC) (human) (UniProt Q16570).
T1 sequence (looked up): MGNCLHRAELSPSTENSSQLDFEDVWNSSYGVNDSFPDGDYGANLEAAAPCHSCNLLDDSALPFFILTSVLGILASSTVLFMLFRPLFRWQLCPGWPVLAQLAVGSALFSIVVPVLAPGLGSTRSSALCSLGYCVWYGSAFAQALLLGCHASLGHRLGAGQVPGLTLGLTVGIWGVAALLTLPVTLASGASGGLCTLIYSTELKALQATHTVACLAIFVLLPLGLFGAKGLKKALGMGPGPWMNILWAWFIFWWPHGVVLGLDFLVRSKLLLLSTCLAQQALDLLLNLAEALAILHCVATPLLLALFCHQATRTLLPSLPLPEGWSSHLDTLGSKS
Nature of the assay: Table 18, DARC binding (µM); >100 = ED50 not determined.

The target of assay [2] is T1, Duffy Antigen Receptor for Chemokines (DARC) (human). Briefly: estimated ka for binding to red blood cells divided by average inhibitory ED50 in THP-1 migration.
For assay [3], the target named is chemokine receptors on THP-1 cells. Briefly: estimated ka for binding to THP-1 cells (column 'average ED50', peptide 2 family footnote).
Assay [4] deals with chemokine receptors on the surface of Jurkat cells. Nature of the assay: binding to chemokine receptors on the surface of Jurkat cells; printed as Ka in concentration units.
The target in assay [5] is chemokine receptors on THP-1 cells. Nature of the assay: binding to chemokine receptors on THP-1 cells; printed as Ka in concentration units.
For assay [6], the target named is chemokine receptors.
For assay [7], the target named is T1, Duffy Antigen Receptor for Chemokines (DARC) (human). Nature of the assay: DARC binding; method not restated.
Assay [8] deals with chemokine receptors on THP-1 cells. Nature of the assay: binding to chemokine receptors on THP-1 cells; given as association constant.
Assay [9] addresses T1, Duffy Antigen Receptor for Chemokines (DARC) (human). Briefly: ka for binding to red blood cells divided by ka for binding to THP-1 cells.
Assay [10] shares this target. Nature of the assay: Table 18, DARC binding (µM); method not restated.
In assay [11] the target is T2, CXCR4 (human), P61073.
T2 chain: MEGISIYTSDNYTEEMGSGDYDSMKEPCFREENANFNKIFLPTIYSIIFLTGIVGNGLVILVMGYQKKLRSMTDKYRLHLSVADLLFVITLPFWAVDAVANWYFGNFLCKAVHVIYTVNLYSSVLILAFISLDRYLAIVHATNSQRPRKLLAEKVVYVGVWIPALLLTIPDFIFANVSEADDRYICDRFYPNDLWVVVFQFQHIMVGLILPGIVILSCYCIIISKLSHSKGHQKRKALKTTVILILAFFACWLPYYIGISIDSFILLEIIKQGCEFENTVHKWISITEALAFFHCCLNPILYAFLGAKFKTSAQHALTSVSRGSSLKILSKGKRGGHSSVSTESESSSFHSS
Briefly: not stated; given as affinity constant.

Assay [12] concerns the target CCR5 (human), P51681. Briefly: not stated; given as affinity constant.
Assay [13] deals with T3, Duffy Antigen Receptor for Chemokines (DARC) (human), Q16570.
T3 chain: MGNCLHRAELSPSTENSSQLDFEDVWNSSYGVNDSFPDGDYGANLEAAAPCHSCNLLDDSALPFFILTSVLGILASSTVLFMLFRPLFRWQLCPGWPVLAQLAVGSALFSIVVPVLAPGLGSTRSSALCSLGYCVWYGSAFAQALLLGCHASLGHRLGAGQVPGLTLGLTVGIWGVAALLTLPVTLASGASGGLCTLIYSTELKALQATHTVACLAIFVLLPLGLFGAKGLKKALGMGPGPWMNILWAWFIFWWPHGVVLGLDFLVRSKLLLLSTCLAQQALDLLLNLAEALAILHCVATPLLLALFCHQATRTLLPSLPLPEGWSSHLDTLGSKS
Briefly: Duffy binding against the LFL peptide.

Assay [14] deals with T3, Duffy Antigen Receptor for Chemokines …. Nature of the assay: Duffy binding; kind of constant not named.
The target is the same in assay [15]. Nature of the assay: Table 18, DARC binding (µM); method not restated.
For assay [16], the target named is chemokine receptors on THP-1 cells. Nature of the assay: binding to THP-1 cells; printed as association constant in concentration units.
The target is the same in assay [17]. Briefly: comparison of DARC binding and THP-1 cells.
Assay [18] has the same target. Briefly: biotinylated peptide 2 on THP-1 cells, streptavidin-peroxidase, with and without 100 µM peptide 3; given as affinity constant.

Positions of bridges follow the written chain, without caps; N, C: chain ends. Non-standard residues stand in square brackets, D forms with d. No end group written: not given here. *: point of attachment. Biotin = O=C1N[C@H]2[C@H](CS[C@H]2CCCCC(=O)*)N1

In general, Kd refers to the constant that tells how readily two partners part at equilibrium.

Sequence of CCR5 (human), P51681 (P51681 whole entry): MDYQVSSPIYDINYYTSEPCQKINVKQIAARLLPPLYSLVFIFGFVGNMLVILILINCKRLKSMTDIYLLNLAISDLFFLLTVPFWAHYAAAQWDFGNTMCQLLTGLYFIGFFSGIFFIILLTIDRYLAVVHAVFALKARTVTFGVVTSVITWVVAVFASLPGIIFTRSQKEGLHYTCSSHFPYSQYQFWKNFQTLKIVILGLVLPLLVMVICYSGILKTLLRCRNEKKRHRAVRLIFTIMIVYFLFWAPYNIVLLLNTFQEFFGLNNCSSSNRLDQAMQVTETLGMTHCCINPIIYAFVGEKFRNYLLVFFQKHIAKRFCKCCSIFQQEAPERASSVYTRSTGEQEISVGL

For [dC][dV][dA][dE][dK][dP][dS][dK][dS][dS][dT][dI][dR][dR][dY][dS][dC] (cysteine pairing not given here) [LRD Cys0Ser10Cys16 derivative of peptide 2(1-15)[MCP-1]], the DARC binding in [1] was over 100 µM.

Consider CPKEAV, for which, in [1], the DARC binding is over 100 µM.

On to CADPKQKWVQ [Peptide 3(3-12)[MCP-1]], for which, in assay [2], the Duffy selectivity is 1.21.

For SYRRITSSKCPKEAV [Peptide 2(1-15)[MCP-1]], the Kd is 2000 nM in assay [3], 250 nM in assay [4] and 300 nM in [5]. Moreover, the gp120 ED-50 in [6] amounted to 0.4 µM.

Take KQKWVQ [Peptide 3(7-12)[MCP-1]]: in assay [2], the Duffy selectivity is 2.94.

Molecule SYRRITSSKSPKEAV [Ser10 variant of peptide 2(1-15)[MCP-1]] showed a DARC binding in [7] of 20 to 100 µM.

EICADP [Peptide 3(1-6)[MCP-1]]: the Duffy selectivity in assay [2] was 5.32.

EICADPSEEWVQ (not fully specified) [Ser7Glu8Glu9peptide 3(1-12)[MCP-1]]: the Duffy selectivity in assay [2] was 0.59.

Take DYFETSSQCSKPGV [Pep2(1-14)[MIP1α]]: the Kd in assay [3] was 1000 to 10000 nM; in assay [8], 100 to 900 nM. Besides, the gp120 ED-50 in assay [6] was over 100 µM.

For HLKILNTPNCALQIV [Pep2(1-15)[SDF1]], the Duffy selectivity in assay [9] is under 1. Further, the Kd in assay [3] was 1000 to 10000 nM. The DARC binding in assay [10] is 19 µM. The gp120 ED-50 in assay [6] stood at 35 µM.

In the case of [dC][dQ][dV][dW][dK][dQ][dK][dP][dD][dA][dC] (disulfide 1-11; not fully specified) [CRD-Cys13pep3[3-12]], the Duffy selectivity in assay [2] was 8.82.

With ELRVIESGPHCANTEI [Pep2(1-16)[IL8]], the Kd in assay [3] was 1000 to 10000 nM.

In the case of VAEKPCKSSTIRRYS (not fully specified (some residues)) [LRD peptide 2(1-15)[MCP-1]], the results for the Kd in assay [11], in assay [12] and in [14] were under 100 nM, under 100 nM and 25 µM, respectively. Further, in assay [13], the fold decrease in Duffy binding against LFL peptide 2 was 100 fold. The same molecule displayed a gp120 ED-50 in [6] of 3 µM. The same molecule yielded a DARC binding in assay [15] of 18 µM.

On to EICADPKQKWVQ [Peptide 3(1-12)[MCP-1]], for which the Duffy selectivity in [2] is 1. Besides, the Kd in [16] was 10 µM.

With EICADPSQKWVQ [Ser7peptide 3(1-12)[MCP-1]], the Duffy selectivity in assay [2] is 2.

In turn, EICLDPKQKWIQ [Leu4Ile11peptide 3(1-12)[MCP-1]] registered a selectivity for receptors on THP-1 cells over DARC in assay [17] of over 20 fold.

Turning to Biotin-SYRRITSSKCPKEAV [N-terminal biotin-labeled derivative of peptide 2(1-15)[MCP-1]], the Kd in assay [18] is 250 µM.

The values are drawn from patent publication EP2386565A2, “Compounds and methods to inhibit or augment an inflammatory response” (Cambridge Enterprise Ltd., priority 1999, dated 2000).
